Experimental data: a protein production outcome set (Wang et al. 2014)

Experiment: label from the status in PepcDB records

Q: With “MSVSVKGNEQLTSLLNDWYRAMLSQQVIKATNLKKKIDEKINKLSIEPDQEHQDQNLLLYYSLLEFRYKVLTDSLGIQQNSFDTISDYDMPTDQFLQFYYHFFKSIHSTFISNYTEAEEHYKLAEKILVAIPDEIEHAEFYYRIATFYHHTYNNLASIEYANKSRAIFSKYEGYEVKTAFCNSLLGGCCIYLKQYEQAEEYLHCAIDLLQKNREEDSLLYVKNTMGWLYSDQSMSTLAIRHLSEVTEKIPTHFKAIFLQAKEHYKLGEQSTASQLIDKGLQICREIHNEEYTHHFSILKKLNENIPLEELEKIIQEGILYFEEEELWEYVVEYAELFATKCRQLENHQKVSDYFHICYQARQKSIAKGVLK” as the sequence, how does the protein production read?
A: failed

Q: With “MSVYKLTDLRDNSTNWKINVKILSIWNHPPNSHGEIMTMILHDDKNNRVDATIPQGNYHNPFRPFLKPGTWIHISDFRVIVPQSRVRYSSFCFHIKFIWETSVYPLPELVKRDFFDFIFPIDLKYPCLEDWDYVTDAMSEVTNISAIKKFPFVCRQGETDYESRYVSFELLDNMGEKMKCYAVGRCCELFVINFSKCISSASYNYQPIVAIVRFWRIAEIEGENVLKSEFGCSRIYLNPTNFPEIDIQSYIRGFEDYDELPENPRMEVIEEN” as the sequence, how does the protein production read?
A: failed

Q: For “MSWACRPATAQRQAGRNGGAPTVQSRVPRRASPRTHHPFVRLVATTLRPVRPYSDLLQHRLLHPMHRFVIVGLGNFGASVAEALYSHGHDVIAVDVDEQAVDDIAPHCSRAAVGDGREAATLEEIGAEAADAAVVSTGDDITASILATMALQDLGVDVVYVKVISDNHARIMRQLGATEAVFPERDSAFNLASRISEKGVVNYVRMGRNLSVQELVVPEEWRGHTLRELDVRAEYGVSVVGIHETTIDDMIVPPNPDDTLRHTDTLILAGTDEAIEKVADLASATAEEAE”, which protein production is on record?
A: failed

Q: With “MSWENPGPPKRADARRNYDRIIEAAAAEVARHGADASLEEIARRAGVGSATLHRHFPSRWGLLQAVFQERVAQLCDEARSLAAEHPPATALTRWLTSLAVFGAVTRGAARSLLPATGTNTGAALDSRCEQLLTEAGADLLARAQEDGTVRDDVTALELLSLANAVSLAAEHTPDAAHHATRLMGIALGGLGAPGPRPQG” as the sequence, how does the protein production read?
A: not failed

Q: With “MSWFDDLFSNKENSDEELLRRKSKRRNGDLTQNKDDSLLPENNDIYDRPRGKFRFPIDVGQDENYEEAIYRDSNDDIGSYRPHSSNDHSSYDSFDYDGHTNQSNNYAKYDSSEDSRRRRRRNHINQDDTGIPSIKSRSPKSSNKYIDTRESQRFNKHQNNYSSTNVSNYSKANSNHQSRVKLQSERFKSNYHLSSEPTYHRSSFKTSEVPSAIFGTKKRRPIENGVIPPVKDDEDSKESITKYSSSTVEHVPHESNHAIADNSNKEDTKRSSQLDSSITIENESTIESSSNTSNNNERTPNYSKRDNTVNIENIYASQIVEEIRKERERKVQQKRKFKEALQNKRQQTDEEDSIQRAIDEMYAKQAEQYTGESSLNQGDNVSNKSNESEIDKSKHSYHSKDKSLVDEHNGLVQNQTDEQTNSDNVDNQTEVSNESHEPYNYEEIDLNQVSSVQQVRQDDVQVKDVLEEQSSKINNNKVESYSNEKFDDYLEDTNSHEEMLHDDDLHEQVMDDDENEGISNKTTDENNDEKIDDANYREINESESLMQDKANDLKFNDEVNNSENQQNSSENNINNAVRNAVSSDIEYATNEDEENDERLAQDTNKEDQKLSQSEDIQHESLNNEDVSLTSNKTDDSEHLEKDSLNEDKKAEPSFNKTNKAPQKMSIKPGSKPFNVVMTPSDKKRVMDAKKNSVSRNKVNVPELKPETKKEAQDEKMNAEFDNHLNESQLNSDESSDFNVASLEYNESSEHSVEKDNIINDENTRENEHQDVDNSQNNDMPKGNQFSKVQNSNNQNDNKHDINEFVSKEGYSEVTSTKNHKDGDDANHKAPIRRGPNIKLPSLDLLEDHEEHEIDESWIEEKKQELNDAFYYFNVPAEVQNVTEGPSVTRFELAVEKGVKVSRITALQDDIKMALAAKDIRIEAPIPGTSLVGIEVPNLNPTKVNLKSILESPKFKNAESKLTVAMGNRINNEPLLMDIAKTPHALIAGATGSGKSVCINSILMSLLYKNHPEELRLLLIDPKMVELAPYNDLPHLVSPVITDVKAATQSLKWAVDEMEKRYKLFAQFHVRNITAFNKKAPYEQRMPKIVIVIDELADLMMMAPQEVEQSIARIAQKARACGIHMLVATQRPSVNVITGLIKANIPTRIAFMVSSSVDSRTILDSGGAERLLGYGDMLYLGSGMNKPIRVQGTFVSDDEIDDVVDFIKDQREPDYLFEEKELLKKNQTQAQDELFDDVCEFMVKEGHISTSLIQRHFQIGYNRAARIVDQLEQLDYISGANGSKPRDVFITEADLKKE” as the sequence, how does the protein production read?
A: failed

Q: With “MSYAGDITPLQAWEMLSDNPRAVLVDVRCEAEWRFVGVPDLSSLGREVVYVEWATSDGTHNDNFLAELRDRIPADADQHERPVIFLCRSGNRSIGAAEVATEAGITPAYNVLDGFEGHLDAEGHRGATGWRAVGLPWRQG” as the sequence, how does the protein production read?
A: not failed
